Bridges are numbered along the chain shown (N, C = ends). [ ]: non-standard residue; d: D form. Chg = N[C@H](C(=O)O)C1CCCCC1
T1: CathepsinG, from human neutrophils (human, UniProt P08311 21-244)
T1 sequence (looked up): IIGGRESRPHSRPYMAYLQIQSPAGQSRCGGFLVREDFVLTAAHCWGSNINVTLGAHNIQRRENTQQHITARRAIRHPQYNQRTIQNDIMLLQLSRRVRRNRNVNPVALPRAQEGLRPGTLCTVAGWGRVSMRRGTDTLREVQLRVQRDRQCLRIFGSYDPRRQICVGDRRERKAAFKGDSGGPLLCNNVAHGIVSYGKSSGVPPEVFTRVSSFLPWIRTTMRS

B1: Example 27 (peptide)
peptide: XCTKSDPPICN
HELM: PEPTIDE1{[O=C([C@H](CCc1ccccc1)N[*:1])[*:2]].C.T.K.S.D.P.P.I.C.N.[dP].P}$PEPTIDE1,PEPTIDE1,2:R3-10:R3|PEPTIDE1,PEPTIDE1,1:R1-13:R2$$$V2.0
SMILES: CC[C@H](C)[C@@H]1NC(=O)[C@@H]2CCCN2C(=O)[C@@H]2CCCN2C(=O)[C@H](CC(=O)O)NC(=O)[C@H](CO)NC(=O)[C@H](CCCCN)NC(=O)[C@H]([C@@H](C)O)NC(=O)[C@@H]2CSSC[C@H](NC1=O)C(=O)N[C@@H](CC(N)=O)C(=O)N1CCC[C@@H]1C(=O)N1CCC[C@H]1C(=O)N[C@@H](CCc1ccccc1)C(=O)N2
B2: Example 29 (peptide)
peptide: XCTKSDPPICD
HELM: PEPTIDE1{[O=C([C@H](CCc1ccccc1)N[*:1])[*:2]].C.T.K.S.D.P.P.I.C.D.[dP].P}$PEPTIDE1,PEPTIDE1,2:R3-10:R3|PEPTIDE1,PEPTIDE1,1:R1-13:R2$$$V2.0
SMILES: CC[C@H](C)[C@@H]1NC(=O)[C@@H]2CCCN2C(=O)[C@@H]2CCCN2C(=O)[C@H](CC(=O)O)NC(=O)[C@H](CO)NC(=O)[C@H](CCCCN)NC(=O)[C@H]([C@@H](C)O)NC(=O)[C@@H]2CSSC[C@H](NC1=O)C(=O)N[C@@H](CC(=O)O)C(=O)N1CCC[C@@H]1C(=O)N1CCC[C@H]1C(=O)N[C@@H](CCc1ccccc1)C(=O)N2
B3: Example 32 (peptide)
peptide: XCTKSDPPICY
HELM: PEPTIDE1{[Nc1ccc(C[C@H](N[*:1])C(=O)[*:2])cc1].C.T.K.S.D.P.P.I.C.Y.[dP].P}$PEPTIDE1,PEPTIDE1,2:R3-10:R3|PEPTIDE1,PEPTIDE1,1:R1-13:R2$$$V2.0
SMILES: CC[C@H](C)[C@@H]1NC(=O)[C@@H]2CCCN2C(=O)[C@@H]2CCCN2C(=O)[C@H](CC(=O)O)NC(=O)[C@H](CO)NC(=O)[C@H](CCCCN)NC(=O)[C@H]([C@@H](C)O)NC(=O)[C@@H]2CSSC[C@H](NC1=O)C(=O)N[C@@H](Cc1ccc(O)cc1)C(=O)N1CCC[C@@H]1C(=O)N1CCC[C@H]1C(=O)N[C@@H](Cc1ccc(N)cc1)C(=O)N2
B4: Example 33 (peptide)
peptide: XCTKSDPPICN
HELM: PEPTIDE1{[Cha].C.T.K.S.D.P.P.I.C.N.[dP].P}$PEPTIDE1,PEPTIDE1,2:R3-10:R3|PEPTIDE1,PEPTIDE1,1:R1-13:R2$$$V2.0
SMILES: CC[C@H](C)[C@@H]1NC(=O)[C@@H]2CCCN2C(=O)[C@@H]2CCCN2C(=O)[C@H](CC(=O)O)NC(=O)[C@H](CO)NC(=O)[C@H](CCCCN)NC(=O)[C@H]([C@@H](C)O)NC(=O)[C@@H]2CSSC[C@H](NC1=O)C(=O)N[C@@H](CC(N)=O)C(=O)N1CCC[C@@H]1C(=O)N1CCC[C@H]1C(=O)N[C@@H](CC1CCCCC1)C(=O)N2
B5: Example 34 (peptide)
peptide: XCTKSDPPICT
HELM: PEPTIDE1{[Cha].C.T.K.S.D.P.P.I.C.T.[dP].P}$PEPTIDE1,PEPTIDE1,2:R3-10:R3|PEPTIDE1,PEPTIDE1,1:R1-13:R2$$$V2.0
SMILES: CC[C@H](C)[C@@H]1NC(=O)[C@@H]2CCCN2C(=O)[C@@H]2CCCN2C(=O)[C@H](CC(=O)O)NC(=O)[C@H](CO)NC(=O)[C@H](CCCCN)NC(=O)[C@H]([C@@H](C)O)NC(=O)[C@@H]2CSSC[C@H](NC1=O)C(=O)N[C@@H]([C@@H](C)O)C(=O)N1CCC[C@@H]1C(=O)N1CCC[C@H]1C(=O)N[C@@H](CC1CCCCC1)C(=O)N2
B6: Example 35 (peptide)
peptide: XCTKSDPPICD
HELM: PEPTIDE1{[Cha].C.T.K.S.D.P.P.I.C.D.[dP].P}$PEPTIDE1,PEPTIDE1,2:R3-10:R3|PEPTIDE1,PEPTIDE1,1:R1-13:R2$$$V2.0
SMILES: CC[C@H](C)[C@@H]1NC(=O)[C@@H]2CCCN2C(=O)[C@@H]2CCCN2C(=O)[C@H](CC(=O)O)NC(=O)[C@H](CO)NC(=O)[C@H](CCCCN)NC(=O)[C@H]([C@@H](C)O)NC(=O)[C@@H]2CSSC[C@H](NC1=O)C(=O)N[C@@H](CC(=O)O)C(=O)N1CCC[C@@H]1C(=O)N1CCC[C@H]1C(=O)N[C@@H](CC1CCCCC1)C(=O)N2
B7: Example 41 (peptide)
peptide: XCTKSDPPICN
HELM: PEPTIDE1{[Nle].C.T.K.S.D.P.P.I.C.N.[dP].P}$PEPTIDE1,PEPTIDE1,2:R3-10:R3|PEPTIDE1,PEPTIDE1,1:R1-13:R2$$$V2.0
SMILES: CCCC[C@@H]1NC(=O)[C@@H]2CCCN2C(=O)[C@H]2CCCN2C(=O)[C@H](CC(N)=O)NC(=O)[C@@H]2CSSC[C@H](NC1=O)C(=O)N[C@@H]([C@@H](C)O)C(=O)N[C@@H](CCCCN)C(=O)N[C@@H](CO)C(=O)N[C@@H](CC(=O)O)C(=O)N1CCC[C@H]1C(=O)N1CCC[C@H]1C(=O)N[C@@H]([C@@H](C)CC)C(=O)N2
B8: Example 43 (peptide)
peptide: XCTKSDPPICD
HELM: PEPTIDE1{[Nle].C.T.K.S.D.P.P.I.C.D.[dP].P}$PEPTIDE1,PEPTIDE1,2:R3-10:R3|PEPTIDE1,PEPTIDE1,1:R1-13:R2$$$V2.0
SMILES: CCCC[C@@H]1NC(=O)[C@@H]2CCCN2C(=O)[C@H]2CCCN2C(=O)[C@H](CC(=O)O)NC(=O)[C@@H]2CSSC[C@H](NC1=O)C(=O)N[C@@H]([C@@H](C)O)C(=O)N[C@@H](CCCCN)C(=O)N[C@@H](CO)C(=O)N[C@@H](CC(=O)O)C(=O)N1CCC[C@H]1C(=O)N1CCC[C@H]1C(=O)N[C@@H]([C@@H](C)CC)C(=O)N2
B9: Example 45 (peptide)
peptide: XCTKSDPPICN
HELM: PEPTIDE1{[O=C([C@H](Cc1ccccc1Cl)N[*:1])[*:2]].C.T.K.S.D.P.P.I.C.N.[dP].P}$PEPTIDE1,PEPTIDE1,2:R3-10:R3|PEPTIDE1,PEPTIDE1,1:R1-13:R2$$$V2.0
SMILES: CC[C@H](C)[C@@H]1NC(=O)[C@@H]2CCCN2C(=O)[C@@H]2CCCN2C(=O)[C@H](CC(=O)O)NC(=O)[C@H](CO)NC(=O)[C@H](CCCCN)NC(=O)[C@H]([C@@H](C)O)NC(=O)[C@@H]2CSSC[C@H](NC1=O)C(=O)N[C@@H](CC(N)=O)C(=O)N1CCC[C@@H]1C(=O)N1CCC[C@H]1C(=O)N[C@@H](Cc1ccccc1Cl)C(=O)N2
B10: Example 61 (peptide)
peptide: WCTKSDPPICS
HELM: PEPTIDE1{W.C.T.K.S.D.P.P.I.C.S.[dP].P}$PEPTIDE1,PEPTIDE1,2:R3-10:R3|PEPTIDE1,PEPTIDE1,1:R1-13:R2$$$V2.0
SMILES: CC[C@H](C)[C@@H]1NC(=O)[C@@H]2CCCN2C(=O)[C@@H]2CCCN2C(=O)[C@H](CC(=O)O)NC(=O)[C@H](CO)NC(=O)[C@H](CCCCN)NC(=O)[C@H]([C@@H](C)O)NC(=O)[C@@H]2CSSC[C@H](NC1=O)C(=O)N[C@@H](CO)C(=O)N1CCC[C@@H]1C(=O)N1CCC[C@H]1C(=O)N[C@@H](Cc1c[nH]c3ccccc13)C(=O)N2
B11: Example 62 (peptide)
peptide: XCTKSDPPICS
HELM: PEPTIDE1{[O=C([C@H](Cc1cccc2ccccc12)N[*:1])[*:2]].C.T.K.S.D.P.P.I.C.S.[dP].P}$PEPTIDE1,PEPTIDE1,2:R3-10:R3|PEPTIDE1,PEPTIDE1,1:R1-13:R2$$$V2.0
SMILES: CC[C@H](C)[C@@H]1NC(=O)[C@@H]2CCCN2C(=O)[C@@H]2CCCN2C(=O)[C@H](CC(=O)O)NC(=O)[C@H](CO)NC(=O)[C@H](CCCCN)NC(=O)[C@H]([C@@H](C)O)NC(=O)[C@@H]2CSSC[C@H](NC1=O)C(=O)N[C@@H](CO)C(=O)N1CCC[C@@H]1C(=O)N1CCC[C@H]1C(=O)N[C@@H](Cc1cccc3ccccc13)C(=O)N2
B12: Example 66 (peptide)
peptide: XCTKSDPPXCY
HELM: PEPTIDE1{[O=C([C@@H](N[*:1])C1CCCCC1)[*:2]].C.T.K.S.D.P.P.[Cha].C.Y.[dP].P}$PEPTIDE1,PEPTIDE1,2:R3-10:R3|PEPTIDE1,PEPTIDE1,1:R1-13:R2$$$V2.0
SMILES: C[C@@H](O)[C@@H]1NC(=O)[C@@H]2CSSC[C@H](NC(=O)[C@H](CC3CCCCC3)NC(=O)[C@@H]3CCCN3C(=O)[C@@H]3CCCN3C(=O)[C@H](CC(=O)O)NC(=O)[C@H](CO)NC(=O)[C@H](CCCCN)NC1=O)C(=O)N[C@@H](Cc1ccc(O)cc1)C(=O)N1CCC[C@@H]1C(=O)N1CCC[C@H]1C(=O)N[C@@H](C1CCCCC1)C(=O)N2
B13: Example 70 (peptide)
peptide: XCTKSDPPXCN
HELM: PEPTIDE1{[Nc1ccc(C[C@H](N[*:1])C(=O)[*:2])cc1].C.T.K.S.D.P.P.[Cha].C.N.[dP].P}$PEPTIDE1,PEPTIDE1,2:R3-10:R3|PEPTIDE1,PEPTIDE1,1:R1-13:R2$$$V2.0
SMILES: C[C@@H](O)[C@@H]1NC(=O)[C@@H]2CSSC[C@H](NC(=O)[C@H](CC3CCCCC3)NC(=O)[C@@H]3CCCN3C(=O)[C@@H]3CCCN3C(=O)[C@H](CC(=O)O)NC(=O)[C@H](CO)NC(=O)[C@H](CCCCN)NC1=O)C(=O)N[C@@H](CC(N)=O)C(=O)N1CCC[C@@H]1C(=O)N1CCC[C@H]1C(=O)N[C@@H](Cc1ccc(N)cc1)C(=O)N2

Biological target: T1, CathepsinG, from human neutrophils
Assay: cell-based or functional assay

Row | Binder | IC50 [nmol]
1 | B1 | 48
2 | B2 | 42
3 | B3 | 52
4 | B4 | 45
5 | B5 | 56
6 | B6 | 54
7 | B7 | 49
8 | B8 | 77
9 | B9 | 47
10 | B10 | 72
11 | B11 | 69
12 | B12 | 48
13 | cyclo([Chg]CTK[AlloThr]DPPYCY[dP]P) (disulfide 2-10) [Example 67] | 48
14 | cyclo(FCTKSDPPICS[dN]P) (disulfide 2-10) [Example 69] | 68
15 | B13 | 69

Source: US20140213531A1 (POLYPHOR, published 2014)
